Data as given in patent publication US20110182926A1, “[…]” (priority 2008, published 2011).

Key:
[1] = molecular target: T1, HLA-A*0201 (Homo sapiens, UniProt P04439, D140Y/D185E/D98H/E176V/E277Q/G131W/G231S/I119V/I121R/I166T/I218V/L300P/L318F/N151K/N90K/P208A/P217A/Q86G/Q94H/R138H/R169H/T345S); test: iTopia Epitope Discovery System binding affinity; conditions: hTERT analogs; FIG. 8
Method: Candidate epitopes and analogs are analyzed for the ability to bind to HLA-A*0201in-vitro using iTopia™ Epitope Discovery System (http://www.immunomics.com). This assay provides a method to determine the binding affinity and stability of a test peptide to any of several Class I HLA molecules, using fluorescent-labeled antibody that specifically recognizes HLA only when peptide is bound in the MHC-I groove.
Candidate epitopes and analogs are analyzed for the ability to bind to HLA-A*0201 in-vitro using iTopia™ Epitope Discovery System (http://www.immunomics.com). This assay provides a method to determine the binding affinity and stability of a test peptide to any of several Class I HLA molecules, using fluorescent-labeled antibody that specifically recognizes HLA only when peptide is bound in the MHC-I groove.

[2] = test system: HHD mice; test: Immunogenicity of additional CEA peptides in HHD mice (Example 9, ICS for IFNγ); type: in vivo; conditions: for fold more immunogenic than the natural peptide: HHD mice, ICS IFNγ; for fold more immunogenic than the natural peptide / immunogenicity (immune response against the natural target epitope): FIG. 7; for immunogenicity (immune response against the natural target epitope): 6 HHD mice, 100 μg peptide s.c., two injections, ICS IFNγ three weeks later
[3] = molecular target: T1, HLA-A*0201; test: In vitro cellular binding assay of CEA peptides on TAP-deficient T2 cells (FACS); conditions: 50 μM peptide, 18 hours at 37° C., FIG. 3
Method: To determine the binding ability of EI Suite-selected wild type peptides and analogs, an in vitro cellular binding assay was performed using the TAP-deficient cell line T2. T2 cells are HLA-A*0201 positive, MHC class II negative and TAP deficient, meaning that they lack a functional transporter associated with antigen presentation, so that they accumulate empty unstable class I molecules.
T2 cells were incubated with 50 μM peptide in serum-free RPMI 1640 supplemented with 5 μg/mL human β2m (Fluka) for 18 hours at 37° C. HLA-A*0201 expression was then measured by flow cytometry using the anti-HLA-A2.1 monoclonal antibody (mAb) BB7.2 followed by incubation with fluorescein isothiocyanate (FITC)-conjugated F(ab′)2 goat antimouse Ig (Biosource). The results are expressed as fluorescence index (FI) defined as a ratio (median channel of fluorescence) between the sample and a control without any peptide. An increase over the control of at least […] (FI>2) was arbitrarily chosen as the cutoff point.

[4] = molecular target: T1, HLA-A*0201; test: HLA-A*0201/peptide complex stability on T2 cells over time (FACS); type: binding; conditions: 50 μM peptide, 0-8 hours, FIG. 4
Method: To assess the HLA-A*0201/peptide complex stability, T2 cells (10^6/mL) were incubated overnight with 50 μM of each peptide in serum-free RPMI 1640 supplemented with 100 ng/mL human β2m at 37° C. Cells were then washed 4 times to remove free peptides, incubated for 1 hour with 10 ng/mL Brefeldin A (Sigma-Aldrich) to block cell surface expression of newly synthesized HLA-A*0201 molecules, washed, and incubated at 37° C. for 0, 2, 4, 6, or 8 hours. Subsequently, cells were stained with anti-HLA-A2.1 mAb BB7.2. For each time point, peptide-induced HLA-A*0201 expression was calculated as mean fluorescence value of peptide incubated T2 cells/mean fluorescence value T2 cells in the absence of the peptide. Dissociation complex 50 (DC50) was defined as the time required for the loss of 50% of the HLA-A*0201/peptide complexes stabilized at t=0.
Binding stability of the peptide-MHC complex was also evaluated over time. The CAP-1 peptide was used as positive control.

[5] = molecular target: T2, HLA-A*0201 (iTopia Epitope Discovery System) (human); test: iTopia Epitope Discovery System binding assay
T2 construct: Commercial in vitro assay; also called Class I HLA molecule
Description: This assay provides a method to determine the binding affinity and stability of a test peptide to any of several Class I HLA molecules, using fluorescent-labeled antibody that specifically recognizes HLA only when peptide is bound in the MHC-I groove.

[6] = molecular target: T3, HLA-A*0201 on T2 cells (human); test: T2 cells, 50 uM peptide, surface HLA-A2 by FACS with BB7.2
T3 construct: Empty class I molecule on T2 cells; also called HLA-A2.1; A2.1

[7] = molecular target: T3, HLA-A*0201 on T2 cells; test: assay not named there (T2 cell binding per paragraph 90)
Method: T2 cells were incubated with 50 μM peptide in serum-free RPMI 1640 supplemented with 5 μg/mL human β2m (Fluka) for 18 hours at 37° C. […] The results are expressed as fluorescence index (FI) defined as a ratio (median channel of fluorescence) between the sample and a control without any peptide. An increase over the control of at least 65% (FI>2) was arbitrarily chosen as the cutoff point.

For “540.V9: hTERT position 540 9-mer V9 analog of ILAKFLHWL, SEQ ID NO 15 (ILAKFLHWV)”, the “binding affinity to HLA-A*0201 compared to the corresponding wild type peptide” value [1] was “increase in binding affinity”.

With “540.V10: hTERT position 540 10-mer V10 analog of ILAKFLHWLM, SEQ ID NO 17 (ILAKFLHWLV)” the “binding affinity to HLA-A*0201 compared to the corresponding wild type peptide” value [1] was “increase in binding affinity”.

“688.L2: hTERT position 688 10-mer L2 analog of RAWRTFVLRV, SEQ ID NO 20 (RLWRTFVLRV)” was tested, and the “binding affinity to HLA-A*0201 compared to the corresponding wild type peptide” value [1] was “increase in binding affinity”.

With ALVGIMIGV [CEA687L2] the “fold more immunogenic than the natural peptide” value [2] was “about 3.4 fold” and the “mice responded to the treatment” value ([2]; groups of 6 HHD mice) was 100%.

In the case of ATVGIMIGV [CEA687], the “immunogenicity (immune response against the natural target epitope)” value (“immunogenicity” for short) [2] is reported as “significantly immunogenic” and the “mice responding to the vaccination” value ([2]; groups of 6 HHD mice) is reported as 4 out of 6.

In the case of “GLMIGVLVGV (Anchor-modified analog) [690L2]”, the “binding to HLA-A*0201 compared to wild-type counterpart” value [3] is reported as “marked increase of binding”.

“GLNRTTVTTV (Anchor-modified analog) [307V10]” was tested, and the “binding to HLA-A*0201 compared to wild-type counterpart” value [3] was “marked increase of binding”.

In the case of “GLSAGATVGV (Anchor-modified analog) [682V10]”, the “stability of peptide-MHC complex compared to wild-type counterpart” value [4] is reported as “improved stability” and the “binding to HLA-A*0201 compared to wild-type counterpart” value [3] is reported as “marked increase of binding”.

In the case of IMIGVLVGV [CEA691], the “immunogenicity” value [2] is reported as “immunogenic”.

For “RLTVTTITV (Anchor-modified analog) [CEA310L2]”, the “immunogenicity” value [2] was “extremely powerful in eliciting a cross reactive immune response” and the “fold more immunogenic than the natural peptide” value [2] was 123 fold.

“VLYGPDDPTV (Anchor-modified analog) [411V10]” was tested, and the “stability of peptide-MHC complex compared to wild-type counterpart” value [4] was “improved stability” and the “binding to HLA-A*0201 compared to wild-type counterpart” value [3] was “marked increase of binding”.

B1: hTERT position 688, 10-mer, w.t. (RAWRTFVLRV) (peptide)
peptide: RAWRTFVLRV
notes: Fragment of hTERT (SwissProt O14746, printed); The range is worked out from the printed position and length
In the case of B1, the “binding affinity (% of positive control)” value [5] is reported as 30 % of the positive control.

B2: CEA.682V10 (GLSAGATVGV) (peptide)
peptide: GLSAGATVGV
notes: Anchor-modified analog of a CEA peptide
B2: binds [6].

B3: hTERT position 986, 9-mer, w.t. (FLDLQVNSL) (peptide)
peptide: FLDLQVNSL
notes: as for B1
In the case of B3, the “binding affinity (% of positive control)” value [5] is reported as 30 % of the positive control.

B4: hTERT.934, 9-mer, w.t. (LLDTRTLEV) (peptide)
peptide: LLDTRTLEV
notes: as for B1
In the case of B4, the “binding affinity (% of positive control)” value [5] is reported as 30 % of the positive control.

B5: CEA.691 (IMIGVLVGV) (peptide)
peptide: IMIGVLVGV
notes: Wild type CEA 9-mer
B5: binds [7].

B6: hTERT position 540, 10-mer, w.t. (ILAKFLHWLM) (peptide)
peptide: ILAKFLHWLM
notes: Fragment of hTERT (SwissProt O14746, printed)
For B6, the “binding affinity (% of positive control)” value [5] was 30 % of the positive control.

B7: CEA.307V10 (GLNRTTVTTV) (peptide)
peptide: GLNRTTVTTV
notes: as for B2
B7: binds [6].

B8: hTERT position 540, 9-mer, w.t. (ILAKFLHWL) (peptide)
peptide: ILAKFLHWL
notes: as for B1
For B8, the “binding affinity (% of positive control)” value [5] was 30 % of the positive control.

B9: hTERT 540.V9 analog (peptide)
peptide: ILAKFLHWV
notes: type V9
B9: binds [5].

B10: CEA.589V10 (VLYGPDTPIV) (peptide)
peptide: VLYGPDTPIV
notes: as for B2
B10: binds [6].

B11: hTERT position 30, 9-mer, w.t. (RLGPQGWRL) (peptide)
peptide: RLGPQGWRL
notes: as for B1
In the case of B11, the “binding affinity (% of positive control)” value [5] is reported as 30 % of the positive control.

B12: hTERT position 544, 10-mer, w.t. (FLHWLMSVYV) (peptide)
peptide: FLHWLMSVYV
notes: as for B1
For B12, the “binding affinity (% of positive control)” value [5] was 30 % of the positive control.

B13: hTERT position 865, 9-mer, w.t. (RLVDDFLLV) (peptide)
peptide: RLVDDFLLV
notes: as for B1
B13 was tested, and the “binding affinity (% of positive control)” value [5] was 30 % of the positive control.

B14: hTERT 865.F1 analog (peptide)
peptide: FLVDDFLLV
notes: type F1
B14: binds [5].

B15: CEA.690L2 (GLMIGVLVGV) (peptide)
peptide: GLMIGVLVGV
notes: Anchor-modified analog of a CEA peptide; leucine at position 2
B15: binds [6].
